Measured values published in the supplement of paper PMC9170038.

Test system: MS2 coat protein
Assay: apparent KD of MS2 coat protein; designed switch direction (-1 OFF switch, 1 ON switch): -1; higher = weaker reporter binding
Procedure, shortened: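 The apparent KD reported per design is the median over clusters of curve fits to normalised cluster fluorescence. The RNA switches were transcribed on Illumina chips by stalled E. coli RNA polymerase. SNAP-549-labelled MS2 coat protein was titrated from 0.7 or 1.5 nM, doubling up to 3 µM, in Tris-HCl pH 7.5 buffer containing KCl, MgCl2, BSA, DTT, tRNA and Tween-20, with no input, 200 uM small-molecule ligand, or an oligonucleotide input.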

[1] = input ligand: microRNA oligo, concentration not stated
[2] = Eterna round: R95, input ligand: FMN 200 uM
[3] = Eterna round: R95, input ligand: microRNA oligo, concentration not stated
[4] = Eterna round: R95, input ligand: none

| Sequence | apparent KD of MS2 coat protein (input ligand: FMN 200 uM) [nM] | apparent KD of MS2 coat protein [1] [nM] | apparent KD of MS2 coat protein (input ligand: none) [nM] | apparent KD of MS2 coat protein [2] [nM] | apparent KD of MS2 coat protein [3] [nM] | apparent KD of MS2 coat protein [4] [nM] |
| --- | --- | --- | --- | --- | --- | --- |
| GCAGUAACAUGAGGAUCACCCAUGUGGAACUCGUGAAUAAGCGAGGAUAUCUCAAGAUAUCAAAGAGAGAAGGCGUACACUGCA [Qulege] (Eterna round: R96, puzzle: Exclusion NG 3) | 490 | 96.1 | 142 |  |  |  |
| GCAGUAUGAGUUAGGAUAUGAUGAUUUGAAAUGGGUCAGAAGGAACUUGAGGAUCACCCAAGUAAUGAAUUGGU [JR_BMEx4_Sub073] (Eterna round: R97, puzzle: Brourd's mod of Exclusion 4) | 94.6 |  | 52.7 |  |  |  |
| GCAGUGACAUGAGGAUCACCCAUGUGGAACUCGUGAAUAAGCGAGGAUAUCUCAAGAUAUCAAAGAGAGAAGGCGUACACUGCA [Diorso] (Eterna round: R96, puzzle: Exclusion NG 3) | 731 | 159 | 229 |  |  |  |
| GCAGUGCGAGGAUAUACAUGAGGAUCACCCAUGUGAGAAGAAUAAGUGAGGAAGAAAAGUAGAAGGCGCGUUGG [Mat - Exclusion 3 - Mod of Salish D68] (puzzle: Exclusion 3) |  |  |  | 71.8 | 47.4 | 54.6 |
| GCAUCGUAAGGAUAUCAGCCGGUGGUAUACCGAAACAGGGUUGAGAAGGUACAUGAGGAUCACCCAUGUGAUUU [Eternabot (L2) Solution 37] (Eterna round: R97, puzzle: Exclusion 4) | 203 |  | 58.6 |  |  |  |
| GCAUGCUUUUUGCUCGUUUACAUGAGGAUCACCCAUGUACAUGGGUGAGCCGCAUGUACAGAAAGGAAAACUUUUUG [Alacar Attempt 2] (Eterna round: R97, puzzle: Sensor, turn-off variant 1) | 21.1 |  | 24.7 |  |  |  |
| GCCAAUGUGGAGGAUAUCGACUUCGAAAGAAGUCGAGAAGGCCACACAUGAGGAUCACCCAUGUGAUGCCAGGC [Omei Ex6 H10] (Eterna round: R97, puzzle: Exclusion 6) | 216 |  | 189 |  |  |  |
| GCCAGAGCAGGAUAUUCAAAACCUCACAUGAGGAUCACCCAUGUGGCCGAAAGGCCGGGAGGAGAAGGGCUCUGGC [Fiskers Ex 5 - 1] (puzzle: Exclusion 5) |  |  |  | 49.8 | 13.3 | 15.8 |
| GCCAGAGCAGGAUAUUCAAUAUUCCACAUGAGGAUCACCCAUGUCCAGCGAAAGCUGGAGGGAGAAGGGCUCUGGC [Fiskers Ex 5 - 8] (puzzle: Exclusion 5) |  |  |  | 27.3 | 43.6 | 56.3 |
| GCCAGAGCAGGAUAUUGAAUAAUUCACAUGAGGAUCACCCAUGUCCAGCGAAAGCUGGAACGAGAAGGGCUCUGGC [Fiskers Ex 5 - 5] (puzzle: Exclusion 5) |  |  |  | 12.5 | 11.7 | 11.1 |
| GCCAGAGCAGGAUAUUUAUAUUAUCACAUGAGGAUCACCCAUGUCCAGCGAAAGCUGGAGGGAGAAGGGCUCUGGC [Fiskers Ex 5 - 25] (puzzle: Exclusion 5) |  |  |  | 121 | 190 | 250 |
| GCCAGAUCAGGAUAUCUAAUAUAUCACAUGAGGAUCACCCAUGUCCAGCGAAAGCUGGAGGGAGAAGGGAUCUGGC [Mat - Exclusion 5 - Eli mod - D102] (puzzle: Exclusion 5) |  |  |  | 39.8 | 79.8 | 48.2 |
| GCCAUGGGAGGAUAUACGUCAUAGGUUACCUCACGCUGGCGACAUGAGGAUCACCCAUGUAGAAGGCUCAGAUG [Eternabot (L2) Solution 12] (Eterna round: R97, puzzle: Exclusion 2) | 101 |  | 113 |  |  |  |
| GCCCGGCCUGUAGGAUAUGGUUCCGUUUCGGUUCCAGAAGGACACGAGGAUACAUGAGGAUCACCCAUGUGCUCGUCACCGGGC [salish99_ExNG1_r04_403] (Eterna round: R96, puzzle: Exclusion NG 1) | 8.67 | 8.6 | 11.3 |  |  |  |
| GCCCGGCGUGUAGGAUAUGGUUCCGUUUCGGUUCCAGAAGGACAUGAGGAUCACCCAUGUGCCUGUCGUCGGUCGUCACCGGGC [salish99_ExNG1_r04_401] (Eterna round: R96, puzzle: Exclusion NG 1) | 11.1 | 9.87 | 12.4 |  |  |  |
| GCCGAAAAUGUGAGGAUAUACCUAUGGAAACAUAGGUAGAAGGCACAUGAGGAUCACCCAUGUCCAAUAACGGC [Mat - Exclusion 4 - Eli Mod - D25] (Eterna round: R97, puzzle: Brourd's mod of Exclusion 4) | 664 |  | 287 |  |  |  |
| GCCGAAAGUGUGAGGAUAUACCUAUGGAAACAUAGGUAGAAGGCACAUGAGGAUCACCCAUGUGUCCAAACGGC [Mat - Exclusion 4 - Eli Mod - D23] (Eterna round: R97, puzzle: Brourd's mod of Exclusion 4) | 41.5 |  | 16.5 |  |  |  |
| GCCGAAUAAGUGAGGAUAUACCUAUGGAUACAUAGGUAGAAGGCACAUGAGGAUCACCCAUGUACCUCAACGGC [JL-BMX4-4.16 Eli mod] (Eterna round: R97, puzzle: Brourd's mod of Exclusion 4) | 34.5 |  | 14.8 |  |  |  |
| GCCGAUUAAGUGAGGAUAUACCUAUGGAUACAUAGGUAGAAGGCACAUGAGGAUCACCCAUGUUCCUCAACGGC [Fiskers BMX 4 - 6] (puzzle: Brourd's mod of Exclusion 4) |  |  |  |  | 15 |  |
| GCCGAUUAAGUGAGGAUAUACCUAUGGAUACAUAGGUAGAAGGUACAUGAGGAUCACCCAUGUUCCUCAUCGGC [Fiskers BMX 4 - 10] (puzzle: Brourd's mod of Exclusion 4) |  |  |  |  | 9.97 |  |
| GCCGUAAAUGUGAGGAUAUACCUAUGGAUACAUAGGUAGAAGGCACAUGAGGAUCACCCAUGUCCUUAAUCGGC [Eli BMX r4m3] (Eterna round: R97, puzzle: Brourd's mod of Exclusion 4) | 730 |  | 409 |  |  |  |
| GCCGUAAGUGUGAGGAUAUACCUAUGGAAACAUAGGUAGAAGGCACAUGAGGAUCACCCAUGUUCUCAAUCGGC [Mat - Exclusion 4 - Eli Mod - D5] (Eterna round: R97, puzzle: Brourd's mod of Exclusion 4) | 458 |  | 245 |  |  |  |
| GCCGUACAUGAGGAUCACCCAUGUCAGGAUAUUUAGCACUCGGAGUUCCCGAGAGGUCAAAGAAGGGACAUUGC [EX1 C.17] (Eterna round: R97, puzzle: Exclusion 1) | 21.6 |  | 17.4 |  |  |  |
| GCCGUCAAUGUGAGGAUAUGCCUAUGGAUACGUAGGCAGAAGGCACAUGAGGAUCACCCAUGUCCAAAGACGGC [JL-BMX4-4.31 Eli mod] (Eterna round: R97, puzzle: Brourd's mod of Exclusion 4) | 2170 |  | 200 |  |  |  |
| GCCGUUAAAGGAUAUACAUGAGGAUCACCCAUGUCGGUAUAAAAUUUACCGCCUCCCUGUAGAAGGUUAAGGCA [Xebiatorer] (puzzle: Exclusion 3) |  |  |  |  | 16.1 |  |
| GCCGUUAAGGUAGGAUAUGCUCGGUCUGUUCGUGCAGAAGGGCUGGUCGGCGACUUGAGGAUCACCCAAGUGGUCUUAUAGAAA [Mutated MS2 EX1.19] (Eterna round: R96, puzzle: Exclusion NG 1) | 99.6 | 52.3 | 54.8 |  |  |  |
| GCCUAACAUGAGGAUCACCCAUGUCAGGAUAUCCAUAAACACCGGGAUGUACUGGACGGGAGAAGGGACAGGGC [Escelazari] (Eterna round: R97, puzzle: Exclusion 1) | 53.5 |  | 51.4 |  |  |  |
| GCCUCACAUGAGGAUCACCCAUGUCAGGAUAUCUCGUGCGCAGUAAUUAUCUGGCUAAAGAGAAGGGACAUUAA [Bedile] (puzzle: Exclusion 1) |  |  |  |  | 46.6 |  |
| GCCUGAGCAGGAUAUUCAAUAAUUCACAUGAGGAUCACCCAUGUCCAGCGAAAGCUAGGAGGAGAAGGGCUCAGGC [Mat - Exclusion 5 - Eli mod - D86] (puzzle: Exclusion 5) |  |  |  | 18.3 | 16.5 | 17.8 |
| GCCUUAUCCGUCAGGAUAUACAGCCGCUCCCUGUUGUAGAAGGGACAUGAGGAUCACCCAUGUACGUACCACUG [alecazam7] (Eterna round: R97, puzzle: Brourd's mod of Exclusion 4) | 28.7 |  | 22.6 |  |  |  |
